The target in assay [1] is heme (acquired from hemoglobin resin). Description: visible spectroscopy after incubation with hemoglobin resin. Particulars: mean difference before and after incubation with beads, three independent experiments; parent: est. 0.40; read off a plot.
The target of assay [2] is bovine holo hemoglobin, P01966;P02070. Kind of assay: pull-down (hemoglobin resin, anti-His Western, band intensity quantified). Particulars: three independent pull-down experiments; parent: est. 7.5; read off a plot.

Regarding “apo HphA (hemophilin), N-terminal 6X His tagged, heme stripped by acid-acetone extraction (from UniProt A0A059ZRB8) H43A; H106A”, the response is 0.03 ΔAbsorbance in assay [1] and 1.5 % of Input in assay [2].

(Values after article PMC8560813.)
